Data reported in PMC6504684 (Frontiers in Pharmacology, 2019).

Legend:
[1] = molecular target: glycosylated human nAChR α9-ECD (human) (UniProt Q9UGM1); assay: radioligand binding
[2] = molecular target: deglycosylated human nAChR α9-ECD (human) (UniProt Q9UGM1); assay: radioligand binding

α-conotoxin RgIA, globular isomer, C-terminally amidated (from UniProt P0C1D0 20-32) (peptide)
Ki [1]: 13.3 µM
Ki [2]: 2.7 µM
